The target in the assay is α-synuclein (UniProt P37840 1-140). Put plainly: cell-based or functional assay.

Non-standard residues stand in square brackets, D forms with d.
Also: test concentration or dose not given here.

B1: ZP-0222 (peptide)
peptide: H-[dQ][dY][dK][dV][dL][dI]-NH2
SMILES: CC[C@@H](C)[C@@H](NC(=O)[C@@H](CC(C)C)NC(=O)[C@H](NC(=O)[C@@H](CCCCN)NC(=O)[C@@H](Cc1ccc(O)cc1)NC(=O)[C@H](N)CCC(N)=O)C(C)C)C(N)=O
In the case of B1, the “% decrease in ThT fluorescence” value amounted to 42.3%, the “% decrease in rate of aggregation” value was 34.3% and the “% increase in Lag phase” value worked out at 7.7%.

B2: ZP-0229 (peptide)
peptide: H-[dQ][dY][dS][dV][dL][dV]-NH2
SMILES: CC(C)C[C@@H](NC(=O)[C@H](NC(=O)[C@@H](CO)NC(=O)[C@@H](Cc1ccc(O)cc1)NC(=O)[C@H](N)CCC(N)=O)C(C)C)C(=O)N[C@@H](C(N)=O)C(C)C
Consider B2, for which the “% decrease in ThT fluorescence” value is 17.8%, the “% decrease in rate of aggregation” value was 24.3% and the “% increase in Lag phase” value came out at 33.5%.

B3: ZP-0215 (peptide)
peptide: H-[dQ][dY][dS][dV][dL][dI]-NH2
SMILES: CC[C@@H](C)[C@@H](NC(=O)[C@@H](CC(C)C)NC(=O)[C@H](NC(=O)[C@@H](CO)NC(=O)[C@@H](Cc1ccc(O)cc1)NC(=O)[C@H](N)CCC(N)=O)C(C)C)C(N)=O
B3: the “% decrease in ThT fluorescence” value was 27.6%, the “% decrease in rate of aggregation” value was found to be 17.5% and the “% increase in Lag phase” value amounted to 3.1%.

B4: ZP-0228 (peptide)
peptide: H-[dP][dY][dS][dV][dL][dI]-NH2
SMILES: CC[C@@H](C)[C@@H](NC(=O)[C@@H](CC(C)C)NC(=O)[C@H](NC(=O)[C@@H](CO)NC(=O)[C@@H](Cc1ccc(O)cc1)NC(=O)[C@H]1CCCN1)C(C)C)C(N)=O
Take B4: the “% decrease in ThT fluorescence” value is 40.8%, the “% decrease in rate of aggregation” value was 46.2% and the “% increase in Lag phase” value amounted to 38.2%.

B5: ZP-0214 (peptide)
peptide: Ac-[dD][dR][dY][dS][dV][dL][dI]-NH2
SMILES: CC[C@@H](C)[C@@H](NC(=O)[C@@H](CC(C)C)NC(=O)[C@H](NC(=O)[C@@H](CO)NC(=O)[C@@H](Cc1ccc(O)cc1)NC(=O)[C@@H](CCCNC(=N)N)NC(=O)[C@@H](CC(=O)O)NC(C)=O)C(C)C)C(N)=O
For B5, the “% decrease in ThT fluorescence” value came out at 20.4%, the “% decrease in rate of aggregation” value was found to be 4.8% and the “% increase in Lag phase” value is -12.6%.

B6: ZP-0213 (peptide)
peptide: Ac-[dE][dK][dY][dS][dV][dL][dI]-NH2
SMILES: CC[C@@H](C)[C@@H](NC(=O)[C@@H](CC(C)C)NC(=O)[C@H](NC(=O)[C@@H](CO)NC(=O)[C@@H](Cc1ccc(O)cc1)NC(=O)[C@@H](CCCCN)NC(=O)[C@@H](CCC(=O)O)NC(C)=O)C(C)C)C(N)=O
Turning to B6, the “% decrease in ThT fluorescence” value worked out at 25.6%, the “% decrease in rate of aggregation” value was determined as 12.9% and the “% increase in Lag phase” value is 29.4%.

B7: ZP-0207 (peptide)
peptide: Ac-[dQ][dP][dS][dV][dL][dI]-NH2
SMILES: CC[C@@H](C)[C@@H](NC(=O)[C@@H](CC(C)C)NC(=O)[C@H](NC(=O)[C@@H](CO)NC(=O)[C@H]1CCCN1C(=O)[C@@H](CCC(N)=O)NC(C)=O)C(C)C)C(N)=O
As for B7, the “% decrease in ThT fluorescence” value was 5.5%, the “% decrease in rate of aggregation” value worked out at 3.6% and the “% increase in Lag phase” value turned out to be 29.7%.

B8: ZP-0212 (peptide)
peptide: Ac-[dR][dY][dS][dV][dL][dI]-NH2
SMILES: CC[C@@H](C)[C@@H](NC(=O)[C@@H](CC(C)C)NC(=O)[C@H](NC(=O)[C@@H](CO)NC(=O)[C@@H](Cc1ccc(O)cc1)NC(=O)[C@@H](CCCNC(=N)N)NC(C)=O)C(C)C)C(N)=O
As for B8, the “% decrease in ThT fluorescence” value turned out to be 51.1%, the “% decrease in rate of aggregation” value was found to be 44.9% and the “% increase in Lag phase” value is -14.4%.

B9: ZP-0221 (peptide)
peptide: H-[dQ][dY][dT][dV][dL][dI]-NH2
SMILES: CC[C@@H](C)[C@@H](NC(=O)[C@@H](CC(C)C)NC(=O)[C@H](NC(=O)[C@H](NC(=O)[C@@H](Cc1ccc(O)cc1)NC(=O)[C@H](N)CCC(N)=O)[C@H](C)O)C(C)C)C(N)=O
Take B9: the “% decrease in ThT fluorescence” value stood at 24.7%, the “% decrease in rate of aggregation” value amounted to 22.8% and the “% increase in Lag phase” value is -22.4%.

B10: ZP-0160 (peptide)
peptide: Ac-[dH][dH][dV][dL][dV][dA]-NH2
SMILES: CC(=O)N[C@H](Cc1c[nH]cn1)C(=O)N[C@H](Cc1c[nH]cn1)C(=O)N[C@@H](C(=O)N[C@H](CC(C)C)C(=O)N[C@@H](C(=O)N[C@H](C)C(N)=O)C(C)C)C(C)C
On to B10, for which the “% decrease in ThT fluorescence” value turned out to be 8.8%, the “% decrease in rate of aggregation” value is 10.5% and the “% increase in Lag phase” value came out at 36.5%.

Source of the values: patent US8290713 (LONZA BIOLOGICS, dated 2012).
